The record followed here is US20150344570A1 (published 2015).

Experiment [1] has as its target T1, FcγRIIa R (human, UniProt P12318 34-217).
T1 construct: extracellular domain; also called FcgRIIa R type; 2aR; not shown: His tag at the C terminus
T1 sequence (looked up): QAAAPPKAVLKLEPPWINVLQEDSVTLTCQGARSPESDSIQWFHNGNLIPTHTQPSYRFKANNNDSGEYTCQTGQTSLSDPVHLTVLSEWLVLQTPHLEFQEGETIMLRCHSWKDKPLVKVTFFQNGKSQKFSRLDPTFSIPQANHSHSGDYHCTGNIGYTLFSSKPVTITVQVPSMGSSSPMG
Description: SPR, relative to GpH7-A5/GpH7-B3/GpL16-k0. For orientation: SPR reads the build-up and loss of mass on a sensor chip optically.

For experiment [2], the target named is T2, FcγRIIb (human, UniProt P31994 43-217).
T2 construct: extracellular domain; also called FcgRIIb; 2b; not shown: His tag at the C terminus
T2 sequence (looked up): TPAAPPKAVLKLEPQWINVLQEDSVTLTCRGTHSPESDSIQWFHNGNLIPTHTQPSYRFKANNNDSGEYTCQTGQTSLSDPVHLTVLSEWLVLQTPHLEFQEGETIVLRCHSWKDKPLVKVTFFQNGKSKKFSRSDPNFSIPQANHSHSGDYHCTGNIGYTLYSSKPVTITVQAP
Description: SPR, relative to GpH7-A5/GpH7-B3/GpL16-k0.

Experiment [3] has as its target T1, FcγRIIa R. Description: SPR; He/Con_2aR divided by He/Con_2b (FcγRIIa R over FcγRIIb).

B1: GpH7-A5/GpH7-B3 variant A327_09D/GpL16-k0 (antibody, human IgG1, kappa)
heavy 1: not shown
heavy 2: not shown
light: DIVMTQSPLSLPVTPGEPASISCQASESLVHSNRNTYLHWYLQKPGQSPQLLIYKVSNRFSGVPDRFSGSGSGTDFTLKISRVEAEDVGVYYCSQNTHVPPTFGQGTKVEIERTVAAPSVFIFPPSDEQLKSGTASVVCLLNNFYPREAKVQWKVDNALQSGNSQESVTEQDSKDSTYSLSSTLTLSKADYEKHKVYACEVTHQGLSSPVTKSFNRGEC
notes: Heterodimerized anti-glypican-3 IgG1; mutation in the GpH7-B3 chain only; also called He Ab
In experiment [1], B1 gave a He/Con_2aR of 124 control = 100. The same molecule registered a He/Con_2b in experiment [2] of 172 control = 100. Further, the He_2aR/2b in experiment [3] was determined as 0.72 ratio.

B2: GpH7-A5/GpH7-B3 variant H268_10E/GpL16-k0 (antibody, human IgG1, kappa)
heavy 1: not shown
heavy 2: not shown
light: DIVMTQSPLSLPVTPGEPASISCQASESLVHSNRNTYLHWYLQKPGQSPQLLIYKVSNRFSGVPDRFSGSGSGTDFTLKISRVEAEDVGVYYCSQNTHVPPTFGQGTKVEIERTVAAPSVFIFPPSDEQLKSGTASVVCLLNNFYPREAKVQWKVDNALQSGNSQESVTEQDSKDSTYSLSSTLTLSKADYEKHKVYACEVTHQGLSSPVTKSFNRGEC
notes: as for B1
In experiment [1], B2 came in with a He/Con_2aR of 148 control = 100. The molecule also gave a He/Con_2b in experiment [2] of 230 control = 100. In experiment [3], the He_2aR/2b worked out at 0.64 ratio.

B3: GpH7-A5/GpH7-B3 variant K326_10E/GpL16-k0 (antibody, human IgG1, kappa)
heavy 1: not shown
heavy 2: not shown
light: DIVMTQSPLSLPVTPGEPASISCQASESLVHSNRNTYLHWYLQKPGQSPQLLIYKVSNRFSGVPDRFSGSGSGTDFTLKISRVEAEDVGVYYCSQNTHVPPTFGQGTKVEIERTVAAPSVFIFPPSDEQLKSGTASVVCLLNNFYPREAKVQWKVDNALQSGNSQESVTEQDSKDSTYSLSSTLTLSKADYEKHKVYACEVTHQGLSSPVTKSFNRGEC
notes: as for B1
For B3, the He/Con_2aR in experiment [1] was 148 control = 100. Also, the He/Con_2b in experiment [2] came out at 200 control = 100. Moreover, the He_2aR/2b in experiment [3] stood at 0.74 ratio.

B4: GpH7-A5/GpH7-B3 variant H268_13S/GpL16-k0 (antibody, human IgG1, kappa)
heavy 1: not shown
heavy 2: not shown
light: DIVMTQSPLSLPVTPGEPASISCQASESLVHSNRNTYLHWYLQKPGQSPQLLIYKVSNRFSGVPDRFSGSGSGTDFTLKISRVEAEDVGVYYCSQNTHVPPTFGQGTKVEIERTVAAPSVFIFPPSDEQLKSGTASVVCLLNNFYPREAKVQWKVDNALQSGNSQESVTEQDSKDSTYSLSSTLTLSKADYEKHKVYACEVTHQGLSSPVTKSFNRGEC
notes: as for B1
For the molecule B4, in experiment [1], the He/Con_2aR was determined as 127 control = 100. For the same molecule, the He/Con_2b in experiment [2] was 160 control = 100. The He_2aR/2b in experiment [3] stood at 0.8 ratio.

B5: GpH7-A5/GpH7-B3 variant G236_09D/GpL16-k0 (antibody, human IgG1, kappa)
heavy 1: not shown
heavy 2: not shown
light: DIVMTQSPLSLPVTPGEPASISCQASESLVHSNRNTYLHWYLQKPGQSPQLLIYKVSNRFSGVPDRFSGSGSGTDFTLKISRVEAEDVGVYYCSQNTHVPPTFGQGTKVEIERTVAAPSVFIFPPSDEQLKSGTASVVCLLNNFYPREAKVQWKVDNALQSGNSQESVTEQDSKDSTYSLSSTLTLSKADYEKHKVYACEVTHQGLSSPVTKSFNRGEC
notes: as for B1
Take B5: the He/Con_2aR in experiment [1] came to 106 control = 100. For the same molecule, the He/Con_2b in experiment [2] stood at 167 control = 100. The He_2aR/2b in experiment [3] is 0.64 ratio.

B6: GpH7-A5/GpH7-B3 variant A327_18N/GpL16-k0 (antibody, human IgG1, kappa)
heavy 1: not shown
heavy 2: not shown
light: DIVMTQSPLSLPVTPGEPASISCQASESLVHSNRNTYLHWYLQKPGQSPQLLIYKVSNRFSGVPDRFSGSGSGTDFTLKISRVEAEDVGVYYCSQNTHVPPTFGQGTKVEIERTVAAPSVFIFPPSDEQLKSGTASVVCLLNNFYPREAKVQWKVDNALQSGNSQESVTEQDSKDSTYSLSSTLTLSKADYEKHKVYACEVTHQGLSSPVTKSFNRGEC
notes: as for B1
In experiment [1], B6 returned a He/Con_2aR of 88.9 control = 100. This molecule had a He/Con_2b in experiment [2] of 113 control = 100. In experiment [3], this molecule had a He_2aR/2b of 0.79 ratio.

B7: GpH7-A5/GpH7-B3 variant K326_08L/GpL16-k0 (antibody, human IgG1, kappa)
heavy 1: not shown
heavy 2: not shown
light: DIVMTQSPLSLPVTPGEPASISCQASESLVHSNRNTYLHWYLQKPGQSPQLLIYKVSNRFSGVPDRFSGSGSGTDFTLKISRVEAEDVGVYYCSQNTHVPPTFGQGTKVEIERTVAAPSVFIFPPSDEQLKSGTASVVCLLNNFYPREAKVQWKVDNALQSGNSQESVTEQDSKDSTYSLSSTLTLSKADYEKHKVYACEVTHQGLSSPVTKSFNRGEC
notes: as for B1
As to B7, the He/Con_2aR in experiment [1] was determined as 137 control = 100. Further, the He/Con_2b in experiment [2] stood at 177 control = 100. The molecule further showed a He_2aR/2b in experiment [3] of 0.77 ratio.

B8: GpH7-A5/GpH7-B3 variant G237_20W/GpL16-k0 (antibody, human IgG1, kappa)
heavy 1: not shown
heavy 2: not shown
light: DIVMTQSPLSLPVTPGEPASISCQASESLVHSNRNTYLHWYLQKPGQSPQLLIYKVSNRFSGVPDRFSGSGSGTDFTLKISRVEAEDVGVYYCSQNTHVPPTFGQGTKVEIERTVAAPSVFIFPPSDEQLKSGTASVVCLLNNFYPREAKVQWKVDNALQSGNSQESVTEQDSKDSTYSLSSTLTLSKADYEKHKVYACEVTHQGLSSPVTKSFNRGEC
notes: as for B1
Turning to B8, the He/Con_2aR in experiment [1] is 138 control = 100. In experiment [2], the He/Con_2b came out at 193 control = 100. The He_2aR/2b in experiment [3] was 0.71 ratio.
